# Measured values reported in patent publication US12383631 (BRIGHT PEAK THERAPEUTICS, dated 2025).
# B1: LZM-009 (antibody, V domains shown)
# VH: QVQLVQSGAEVKKPGASVKVSCKASGYTFTSYYMYWVRQAPGQGLEWMGGVNPSNGGTNFNEKFKSRVTITADKSTSTAYMELSSLRSEDTAVYYCARRDYRYDMGFDYWGQGTTVTVSS
# VL: EIVLTQSPATLSLSPGERATISCRASKGVSTSGYSYLHWYQQKPGQAPRLLIYLASYLESGVPARFSGSGSGTDFTLTISSLEPEDFATYYCQHSRELPLTFGTGTKVEIK
# notes: also called LZM-009 anti-PD-1 antibody
# B2: Composition A (LZM-009 conjugated to IL-18 polypeptide of SEQ ID NO: 30) (other)
# VH: B1 VH
# VL: B1 VL
# chain: YFGKLKSKLSIIRNLNDQVLFIDQGNRPLFEDMTDSDARDNAPRTIFIISMYADSQPRGMAVAISVKCEKISTLSAENKIISFKEMNPPDNIKDTKSDIIFFQRSVPGHDNKMQFESSSYEGYFLAAEKERDLFKLILKKEDELGDRSIMFTVQNED
# B3: Durvalumab/Imfinzi (antibody, human IgG1, kappa)
# heavy: EVQLVESGGGLVQPGGSLRLSCAASGFTFSRYWMSWVRQAPGKGLEWVANIKQDGSEKYYVDSVKGRFTISRDNAKNSLYLQMNSLRAEDTAVYYCAREGGWFGELAFDYWGQGTLVTVSSASTKGPSVFPLAPSSKSTSGGTAALGCLVKDYFPEPVTVSWNSGALTSGVHTFPAVLQSSGLYSLSSVVTVPSSSLGTQTYICNVNHKPSNTKVDKRVEPKSCDKTHTCPPCPAPEFEGGPSVFLFPPKPKDTLMISRTPEVTCVVVDVSHEDPEVKFNWYVDGVEVHNAKTKPREEQYNSTYRVVSVLTVLHQDWLNGKEYKCKVSNKALPASIEKTISKAKGQPREPQVYTLPPSREEMTKNQVSLTCLVKGFYPSDIAVEWESNGQPENNYKTTPPVLDSDGSFFLYSKLTVDKSRWQQGNVFSCSVMHEALHNHYTQKSLSLSPGK
# light: EIVLTQSPGTLSLSPGERATLSCRASQRVSSSYLAWYQQKPGQAPRLLIYDASSRATGIPDRFSGSGSGTDFTLTISRLEPEDFAVYYCQQYGSLPWTFGQGTKVEIKRTVAAPSVFIFPPSDEQLKSGTASVVCLLNNFYPREAKVQWKVDNALQSGNSQESVTEQDSKDSTYSLSSTLTLSKADYEKHKVYACEVTHQGLSSPVTKSFNRGEC
# notes: also called MEDI-4736
# B4: recombinant Human Fc gamma RIIA/CD32a (H167) Protein (R&D systems, 9595-CD-050) (receptor)
# chain: AAPPKAVLKLEPPWINVLQEDSVTLTCQGARSPESDSIQWFHNGNLIPTHTQPSYRFKANNNDSGEYTCQTGQTSLSDPVHLTVLSEWLVLQTPHLEFQEGETIMLRCHSWKDKPLVKVTFFQNGKSQKFSHLDPTFSIPQANHSHSGDYHCTGNIGYTLFSSKPVTITVQVPSMGSSSPMGI
# notes: detected with an anti-His antibody; tag not described; also called FcγRIIa (CD32a)
# How the values were obtained:
# [1] = molecular target: T1, Biotinylated Recombinant Human PD-1/CD279-Fc Chimera, carrier-free (Biolegend #789406) (human, UniProt Q15116 25-167, biotinylated); experiment: ELISA; antibody coated, biotinylated PD-1-Fc titrated
# T1 construct: bought; also called recombinant biotinylated human PD-1; Fc part of the bought chimera not given
# Protocol: (§1) The interaction of the unmodified antibodies and corresponding IL-18 immunocytokines with relevant immune cell associated antigen are measured by ELISA assay. For these studies, Corning high-binding half-area plates (Fisher Scientific, Reinach, Switzerland) are coated overnight at 4° C. with 25 μl of unmodified antibodies corresponding IL-18 immunocytokines at 5 μg/ml in PBS. Plates are then washed four times with 100 μl of PBS-0.02% Tween20. Plate surfaces are blocked with 25 μl of PBS-0.02% Tween20-1% BSA at 37° C. during 1 h. Plates are then washed four times with 100 μl of PBS-0.02% Tween20. […] Plates are then washed four times with 100 μl of PBS-0.02% Tween20. Twenty-five microliters of Streptavidin-Horseradish peroxidase (#RABHRP3, Merck, Buchs, Switzerland) diluted at 1:500 into PBS-0.02% Tween20-0.1% BSA are added to each well and incubated at Room Temperature during 30 min. Plates are then washed four times with 100 μl of PBS-0.02% Tween20. Fifty microliters of TMB substrate reagent (#CL07, Merck, Buchs, Switzerland) are added to each well and incubated at 37° C. during 5 min. After 5 min at 37° C., Horseradish peroxidase reaction is stopped by adding 50 μl/well of 0.5M H_2SO_4 stop solution. ELISA signal is then measured at 450 nm on an ENSPTRE® plate reader from Perkin Elmer (Schwerzenbach, Switzerland).
# [2] = molecular target: T2, His-tagged human PD1 (R&D #8986-PD) (human, UniProt Q15116 25-167); experiment: BLI (Octet), antibody on AHC sensor, His-tagged PD-1 as analyte
# T2 construct: bought; not shown: His tag
# Excerpt: (§2) Based on Bio-Layer Interferometry (BLI), Octet® BLI systems enable real-time, label-free analysis for the determination of kinetics and affinity of a ligands to its receptor. Here anti-human IgG FC Capture (AHC) sensors are loaded with the test items (ICs). Sensors are first dipped into a kinetic buffer for baseline measurement, then into an analyte solution, here human PD1, to allow association and again into a buffer solution where the analyte is allowed to come off the ligand (dissociation). Several concentrations of analyte are run in parallel and enable the calculation of affinity parameters: Ka, Kd, KD.
# (§3) Typically, first, the sensors are regenerated by 3 cycles of dipping into 10 mM glycine solution at pH=2 for 20 seconds, followed by 20 second kinetics buffer and a final 60 seconds in kinetics buffer to establish the initial signal (baseline). Second, the loading column will contain the ligand, here the unmodified PD-1 antibodies and of IL-18 polypeptide conjugated PD-1 antibody, at a fixed concentration determined in the loading scout experiment (20 ug/mL). Then another wash/baseline step allows non immobilized proteins to be washed away. The association column will contain the 2-fold dilution series of the analyte (His-tagged human PD1, R&D #8986-PD) including a no analyte control. […] The dissociation designates the sensors to return to previous baseline column with kinetics buffer. After acquisition, the data is analyzed with Data Analysis Studio software (Sartorius). Data sets are first preprocessed by subtracting references samples and aligning curves on the baseline step. Group fitting is then applied to the data series and kinetics parameters are calculated.
# [3] = molecular target: T1, Biotinylated Recombinant Human …; experiment: ELISA: antibody coated on the plate (5 ug/ml), biotinylated human PD-1/CD279-Fc titrated in solution (x-axis), streptavidin-HRP/TMB, 450 nm
# Protocol: as §1
# [4] = molecular target: T1, Biotinylated Recombinant Human …; experiment: ELISA; immunocytokine coated, biotinylated PD-1-Fc titrated
# Protocol: as §1
# [5] = molecular target: T2, His-tagged human PD1 (R&D #8986-PD); experiment: BLI (Octet), immunocytokine on AHC sensor, His-tagged PD-1 as analyte
# Excerpt: as §2, §3
# [6] = molecular target: T1, Biotinylated Recombinant Human …; experiment: ELISA: immunocytokine coated on the plate (5 ug/ml), biotinylated human PD-1/CD279-Fc titrated in solution (x-axis), streptavidin-HRP/TMB, 450 nm
# Protocol: as §1
# [7] = molecular target: T3, recombinant Human Fc gamma RI/CD64 Protein (R&D systems, 1257-FC-050) (human, UniProt P12314 16-288); experiment: ELISA; antibody coated, receptor titrated, anti-His-HRP
# T3 construct: detected with an anti-His antibody; tag not described; also called FcγRI/CD64; human Fc gamma receptor I
# Protocol: (§4) The interaction of the unmodified and of conjugated antibodies with human Fc gamma receptors I (FcγRI/CD64), with human Fc gamma receptors IIa (FcγRIIa/CD32a), with inhibitory human Fc gamma receptors IIb (FcγRIIb/CD32b), and with human Fc gamma receptors III FcγRIIIa/CD16 were measured by ELISA.
# (§5) Briefly, Corning high-binding half-area plates (Fisher Scientific, Reinach, Switzerland) were coated overnight at 4° C. with 25 μl of unmodified and of conjugated anti-PD1 antibodies at 2.5 μg/ml in PBS. Plates were then washed four times with 100 μl of PBS-0.02% Tween20. Plates surfaces were blocked with 25 μl of PBS-0.02% Tween20-1% BSA at 37° C. during 1 h. Plates were then washed four times with 100 μl of PBS-0.02% Tween20. Then twenty-five microliters of either recombinant Human Fc gamma RI/CD64 Protein (R&D systems, 1257-FC-050, CF), recombinant Human Fc gamma RIIA/CD32a (H167) Protein (R&D systems, 9595-CD-050, CF), recombinant Human Fc gamma RIIB/CD32b Avi-tag Protein (R&D systems, AVI1875-050, CF), or recombinant Human Fc gamma RIIIA/CD16a Protein (R&D systems, 4325-FC-050; CF) were added in five-fold serial dilutions ranging from 1000 nM to 0.001 nM into PBS-0.02% Tween20-0.1% BSA and incubated at 37° C. during 2 h. Plates were then washed four times with 100 μl of PBS-0.02% Tween20. Twenty-five microliters of a 1/500 HRP-anti-His antibody in PBS—0.02% Tween20-0.1% BSA (R&D systems, anti-HIS—HRP Ab, #MAB050H) were added to each well and plates were incubated at Room Temperature during 1 h. Plates were then washed four times with 100 μl of PBS-0.02% Tween20. Fifty microliters of TMB substrate reagent (#CL07, Merck, Buchs, Switzerland) were added to each well and incubated at 37° C. during 5 min. After 5 min at 37° C., Horseradish peroxidase reaction was stopped by adding 50 μl/well of 0.5M H2SO4 stop solution. ELISA signal was then measured at 450 nm on an EnSpire plate reader from Perkin Elmer (Schwerzenbach, Switzerland). Binding Affinity of Reference Antibodies and Immunocytokines with Human Fc Gamma Receptors as Measured by ELISA
# [8] = molecular target: B4; experiment: as above
# Protocol: as §4, §5
# [9] = molecular target: T4, recombinant Human Fc gamma RIIIA/CD16a Protein (R&D systems, 4325-FC-050) (human, UniProt P08637 17-208); experiment: as above
# T4 construct: detected with an anti-His antibody; tag and allotype not described; also called FcγRIIIa (CD16)
# Protocol: as §4, §5
# [10] = molecular target: T5, recombinant Human Fc gamma RIIB/CD32b Avi-tag Protein (R&D systems, AVI1875-050) (human, UniProt P31994 46-217); experiment: as above
# T5 construct: also called FcγRIIb (CD32b); not shown: Avi-tag
# T5 sequence (looked up): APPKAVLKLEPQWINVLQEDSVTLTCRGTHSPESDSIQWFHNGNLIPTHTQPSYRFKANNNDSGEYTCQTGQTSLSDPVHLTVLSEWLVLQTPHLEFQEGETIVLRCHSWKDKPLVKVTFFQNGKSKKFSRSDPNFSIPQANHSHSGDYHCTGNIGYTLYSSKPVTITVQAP
# Protocol: as §4, §5
# [11] = molecular target: T6, recombinant biotinylated human FcRn (human, UniProt P55899 24-297; P61769 21-119, limits assumed, biotinylated); experiment: AlphaLISA competition at pH 6; competitor: human IgG on acceptor beads
# T6 construct: also called human neonatal Fc receptor (FcRn)
# Protocol: The interaction of the unmodified and of conjugated anti-PD1 antibodies with the human neonatal Fc receptor (FcRn) at pH 6 was measured using the AlphaLISA® Human FcRn Binding Kit (AL3095C) from Perkin Elmer (Schwerzenbach, Switzerland).
# After 90 min at 23° C. in the dark, AlphaLISA® signal was measured on an EnSpire plate reader (Excitation at 680 nm, Emission at 615 nm) from Perkin Elmer (Schwerzenbach, Switzerland). Binding Affinity of Reference Antibodies and Immunocytokines with the Human Neonatal Fc Receptor as Measured by AlphaLISA
# [12] = molecular target: T7, Composition B (Atezolizumab/Tecentriq conjugated to IL-18 polypeptide of SEQ ID NO: 30) (human, UniProt P0DOX5 2-449 = IgG part; P0DOX7 1-214; Q14116 37-193, chemical linker to the antibody; site not stated for this composition; chemical linker to IL-18; site not stated for this composition); experiment: ELISA; immunocytokine coated, receptor titrated, anti-His-HRP
# T7 construct: immunocytokine
# Protocol: as §4
# Briefly, Corning high-binding half-area plates (Fisher Scientific, Reinach, Switzerland) were coated overnight at 4° C. with 25 μl of unmodified and of conjugated anti-PD1 antibodies at 2.5 μg/ml in PBS. Plates were then washed four times with 100 μl of PBS-0.02% Tween20. Plates surfaces were blocked with 25 μl of PBS-0.02% Tween20-1% BSA at 37° C. during 1 h. Plates were then washed four times with 100 μl of PBS-0.02% Tween20. […] ELISA signal was then measured at 450 nm on an EnSpire plate reader from Perkin Elmer (Schwerzenbach, Switzerland). Binding Affinity of Reference Antibodies and Immunocytokines with Human Fc Gamma Receptors as Measured by ELISA
binder,measurement,setting,value
B1,Kd,[1],0.0407 nM
same,Kd,[2],23.5 nM
same,koff,[2],0.0077 s⁻¹
same,kon,[2],342000 M⁻¹ s⁻¹
same,EC50 (read off the curve),[3],~0.06 nM
B2,Kd,[4],0.0467 nM
same,Kd,[5],11.5 nM
same,koff,[5],0.00479 s⁻¹
same,kon,[5],454000 M⁻¹ s⁻¹
same,EC50 (read off the curve),[6],~0.07 nM
B3,Kd,[7],2.34 nM
same,Kd,[8],160 nM
same,Kd,[9],234 nM
same,Kd,[10],233 nM
same,Kd,[11],8.31 nM
B4,Kd,[12],1740 nM
